Data published in US20250066503A1, “CELL INJURY INDUCING THERAPEUTIC DRUG FOR USE IN CANCER THERAPY” (CHUGAI SEIYAKU KABUSHIKI KAISHA, priority 2016, published 2025).

Target: T1, soluble human CD3 epsilon chain (human, UniProt P07766 23-126)
T1 construct: also called CD3ε
Assay: SPR

T1 sequence (P07766 23-126 limits assumed): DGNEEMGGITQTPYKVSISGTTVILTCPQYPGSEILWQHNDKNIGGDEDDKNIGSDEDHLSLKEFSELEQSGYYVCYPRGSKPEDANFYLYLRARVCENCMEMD

| Binder | Kd [nM] |
| --- | --- |
| TR01H040-E22Hh/none-Hi-Kn010G3/L0200-k0 (antibody, V domains shown, one-arm) VH: QVQLVESGGGLVQPGRSLRLSCAASGFTFSNAWMHWVRQAPGKGLEWVAQIKDKSQNYATYYAESVKGRFTISRADSKNSIYLQMNSLKTEDTAVYYCRYVHYSASYGVDAWGQGTTVTVSS VL: DIVMTQSPLSLPVTPGEPASISCRPSQSPVHSNRNTYLHWYQQKPGQAPRLLIYKVSNRFSGVPDRFSGSGSGTDFTLKISRVEAEDVGVYYCGQGTQVPYTFGQGTKLEIK | 28.7 |
| TR01H040-E22Hh/none-Hi-Kn010G3/L0202-k0 (antibody, V domains shown, one-arm) VH: QVQLVESGGGLVQPGRSLRLSCAASGFTFSNAWMHWVRQAPGKGLEWVAQIKDKSQNYATYYAESVKGRFTISRADSKNSIYLQMNSLKTEDTAVYYCRYVHYSASYGVDAWGQGTTVTVSS VL: DIVMTQSPLSLPVTPGEPASISCRSSQSPVHSNRWTYLHWYQQKPGQAPRLLIYKVSNRFSGVPDRFSGSGSGTDFTLKISRVEAEDVGVYYCGQGTQVPYTFGQGTKLEIK | 61.9 |
| TR01H040-E22Hh/none-Hi-Kn010G3/L0205-k0 (antibody, V domains shown, one-arm) VH: QVQLVESGGGLVQPGRSLRLSCAASGFTFSNAWMHWVRQAPGKGLEWVAQIKDKSQNYATYYAESVKGRFTISRADSKNSIYLQMNSLKTEDTAVYYCRYVHYSASYGVDAWGQGTTVTVSS VL: DIVMTQSPLSLPVTPGEPASISCRSSQSPVHSNRNTYLHWYQQKPGQAPRLLIYKVSNRFWGVPDRFSGSGSGTDFTLKISRVEAEDVGVYYCGQGTQVPYTFGQGTKLEIK | 34.2 |
| TR01H040-E22Hh/none-Hi-Kn010G3/L0207-k0 (antibody, V domains shown, one-arm) VH: QVQLVESGGGLVQPGRSLRLSCAASGFTFSNAWMHWVRQAPGKGLEWVAQIKDKSQNYATYYAESVKGRFTISRADSKNSIYLQMNSLKTEDTAVYYCRYVHYSASYGVDAWGQGTTVTVSS VL: DIVMTQSPLSLPVTPGEPASISCRSSQSPVHSNRNTYLHWYQQKPGQAPRLLIYKVSNRFRGVPDRFSGSGSGTDFTLKISRVEAEDVGVYYCYQGTQVPYTFGQGTKLEIK | 2.6 |
| TR01H040-E22Hh/none-Hi-Kn010G3/L0210-k0 (antibody, V domains shown, one-arm) VH: QVQLVESGGGLVQPGRSLRLSCAASGFTFSNAWMHWVRQAPGKGLEWVAQIKDKSQNYATYYAESVKGRFTISRADSKNSIYLQMNSLKTEDTAVYYCRYVHYSASYGVDAWGQGTTVTVSS VL: DIVMTQSPLSLPVTPGEPASISCRSSQSPVHSNRWTYLHWYQQKPGQAPRLLIYKVSNRFSGVPDRFSGSGSGTDFTLKISRVEAEDVGVYYCYQGTQVPYTFGQGTKLEIK | 5.06 |
| TR01H040-E22Hh/none-Hi-Kn010G3/L0213-k0 (antibody, V domains shown, one-arm) VH: QVQLVESGGGLVQPGRSLRLSCAASGFTFSNAWMHWVRQAPGKGLEWVAQIKDKSQNYATYYAESVKGRFTISRADSKNSIYLQMNSLKTEDTAVYYCRYVHYSASYGVDAWGQGTTVTVSS VL: DIVMTQSPLSLPVTPGEPASISCRSSQSPVHSNRNTYIHWYQQKPGQAPRLLIYKVSNRFRGVPDRFSGSGSGTDFTLKISRVEAEDVGVYYCGQGTQVPYTFGQGTKLEIK | 20.1 |
| TR01H040-E22Hh/none-Hi-Kn010G3/L0214-k0 (antibody, V domains shown, one-arm) VH: QVQLVESGGGLVQPGRSLRLSCAASGFTFSNAWMHWVRQAPGKGLEWVAQIKDKSQNYATYYAESVKGRFTISRADSKNSIYLQMNSLKTEDTAVYYCRYVHYSASYGVDAWGQGTTVTVSS VL: DIVMTQSPLSLPVTPGEPASISCRSSQPPVHSNRNTYLHWYQQKPGQAPRLLIYKVSNRFRGVPDRFSGSGSGTDFTLKISRVEAEDVGVYYCGQGTQVPYTFGQGTKLEIK | 20.2 |
| TR01H040-E22Hh/none-Hi-Kn010G3/L0215-k0 (antibody, V domains shown, one-arm) VH: QVQLVESGGGLVQPGRSLRLSCAASGFTFSNAWMHWVRQAPGKGLEWVAQIKDKSQNYATYYAESVKGRFTISRADSKNSIYLQMNSLKTEDTAVYYCRYVHYSASYGVDAWGQGTTVTVSS VL: DIVMTQSPLSLPVTPGEPASISCRSSQPPVHSNRNTYIHWYQQKPGQAPRLLIYKVSNRFSGVPDRFSGSGSGTDFTLKISRVEAEDVGVYYCGQGTQVPYTFGQGTKLEIK | 33.7 |
| TR01H040-E22Hh/none-Hi-Kn010G3/L0216-k0 (antibody, V domains shown, one-arm) VH: QVQLVESGGGLVQPGRSLRLSCAASGFTFSNAWMHWVRQAPGKGLEWVAQIKDKSQNYATYYAESVKGRFTISRADSKNSIYLQMNSLKTEDTAVYYCRYVHYSASYGVDAWGQGTTVTVSS VL: DIVMTQSPLSLPVTPGEPASISCRSSQPLVHSNRNTYLHWYQQKPGQAPRLLIYKVSNRFRGVPDRFSGSGSGTDFTLKISRVEAEDVGVYYCGQGTQVPYTFGQGTKLEIK | 25.3 |
| TR01H040-E22Hh/none-Hi-Kn010G3/L0217-k0 (antibody, V domains shown, one-arm) VH: QVQLVESGGGLVQPGRSLRLSCAASGFTFSNAWMHWVRQAPGKGLEWVAQIKDKSQNYATYYAESVKGRFTISRADSKNSIYLQMNSLKTEDTAVYYCRYVHYSASYGVDAWGQGTTVTVSS VL: DIVMTQSPLSLPVTPGEPASISCRPSQSLVHSNRNTYLHWYQQKPGQAPRLLIYKVSNRFRGVPDRFSGSGSGTDFTLKISRVEAEDVGVYYCGQGTQVPYTFGQGTKLEIK | 20.7 |
| TR01H040-E22Hh/none-Hi-Kn010G3/L0218-k0 (antibody, V domains shown, one-arm) VH: QVQLVESGGGLVQPGRSLRLSCAASGFTFSNAWMHWVRQAPGKGLEWVAQIKDKSQNYATYYAESVKGRFTISRADSKNSIYLQMNSLKTEDTAVYYCRYVHYSASYGVDAWGQGTTVTVSS VL: DIVMTQSPLSLPVTPGEPASISCRSSQSLVHSNRNTYLHWYQQKPGQAPRLLIYKVSNRFRGVPDRFSGSGSGTDFTLKISRVEAEDVGVYYCYQGTQVPYTFGQGTKLEIK | 8.2 |
| TR01H040-E22Hh/none-Hi-Kn010G3/L0219-k0 (antibody, V domains shown, one-arm) VH: QVQLVESGGGLVQPGRSLRLSCAASGFTFSNAWMHWVRQAPGKGLEWVAQIKDKSQNYATYYAESVKGRFTISRADSKNSIYLQMNSLKTEDTAVYYCRYVHYSASYGVDAWGQGTTVTVSS VL: DIVMTQSPLSLPVTPGEPASISCRSSQSLVHSNRNTYIHWYQQKPGQAPRLLIYKVSNRFRGVPDRFSGSGSGTDFTLKISRVEAEDVGVYYCGQGTQVPYTFGQGTKLEIK | 39.4 |
| TR01H040-E22Hh/none-Hi-Kn010G3/L0220-k0 (antibody, V domains shown, one-arm) VH: QVQLVESGGGLVQPGRSLRLSCAASGFTFSNAWMHWVRQAPGKGLEWVAQIKDKSQNYATYYAESVKGRFTISRADSKNSIYLQMNSLKTEDTAVYYCRYVHYSASYGVDAWGQGTTVTVSS VL: DIVMTQSPLSLPVTPGEPASISCRSSQPLVHSNRNTYLHWYQQKPGQAPRLLIYKVSNRFRGVPDRFSGSGSGTDFTLKISRVEAEDVGVYYCYQGTQVPYTFGQGTKLEIK | 9.15 |
| TR01H040-E22Hh/none-Hi-Kn010G3/L0223-k0 (antibody, V domains shown, one-arm) VH: QVQLVESGGGLVQPGRSLRLSCAASGFTFSNAWMHWVRQAPGKGLEWVAQIKDKSQNYATYYAESVKGRFTISRADSKNSIYLQMNSLKTEDTAVYYCRYVHYSASYGVDAWGQGTTVTVSS VL: DIVMTQSPLSLPVTPGEPASISCRSSQSPVHSNRNTYIHWYQQKPGQAPRLLIYKVSNRLSGVPDRFSGSGSGTDFTLKISRVEAEDVGVYYCYQGTQVPYTFGQGTKLEIK | 8.15 |
| TR01H040-E22Hh/none-Hi-Kn010G3/L0224-k0 (antibody, V domains shown, one-arm) VH: QVQLVESGGGLVQPGRSLRLSCAASGFTFSNAWMHWVRQAPGKGLEWVAQIKDKSQNYATYYAESVKGRFTISRADSKNSIYLQMNSLKTEDTAVYYCRYVHYSASYGVDAWGQGTTVTVSS VL: DIVMTQSPLSLPVTPGEPASISCRSSQSPVHSNRNTYIHWYQQKPGQAPRLLIYKVSNRFPGVPDRFSGSGSGTDFTLKISRVEAEDVGVYYCYQGTQVPYTFGQGTKLEIK | 5.06 |
| TR01H040-E22Hh/none-Hi-Kn010G3/L0226-k0 (antibody, V domains shown, one-arm) VH: QVQLVESGGGLVQPGRSLRLSCAASGFTFSNAWMHWVRQAPGKGLEWVAQIKDKSQNYATYYAESVKGRFTISRADSKNSIYLQMNSLKTEDTAVYYCRYVHYSASYGVDAWGQGTTVTVSS VL: DIVMTQSPLSLPVTPGEPASISCRSSQSPVHSNRNTYIHWYQQKPGQAPRLLIYKVSNRFSGVPDRFSGSGSGTDFTLKISRVEAEDVGVYYCIQGTQVPYTFGQGTKLEIK | 80.1 |
| TR01H040-E22Hh/none-Hi-Kn010G3/L0227-k0 (antibody, V domains shown, one-arm) VH: QVQLVESGGGLVQPGRSLRLSCAASGFTFSNAWMHWVRQAPGKGLEWVAQIKDKSQNYATYYAESVKGRFTISRADSKNSIYLQMNSLKTEDTAVYYCRYVHYSASYGVDAWGQGTTVTVSS VL: DIVMTQSPLSLPVTPGEPASISCRSSQSPVHSNRNTYIHWYQQKPGQAPRLLIYKVSNRFSGVPDRFSGSGSGTDFTLKISRVEAEDVGVYYCLQGTQVPYTFGQGTKLEIK | 101 |
| TR01H040-E22Hh/none-Hi-Kn010G3/L0228-k0 (antibody, V domains shown, one-arm) VH: QVQLVESGGGLVQPGRSLRLSCAASGFTFSNAWMHWVRQAPGKGLEWVAQIKDKSQNYATYYAESVKGRFTISRADSKNSIYLQMNSLKTEDTAVYYCRYVHYSASYGVDAWGQGTTVTVSS VL: DIVMTQSPLSLPVTPGEPASISCRSSQSPVHSNRNTYIHWYQQKPGQAPRLLIYKVSNRFSGVPDRFSGSGSGTDFTLKISRVEAEDVGVYYCVQGTQVPYTFGQGTKLEIK | 16 |
| TR01H040-E22Hh/none-Hi-Kn010G3/L0231-k0 (antibody, V domains shown, one-arm) VH: QVQLVESGGGLVQPGRSLRLSCAASGFTFSNAWMHWVRQAPGKGLEWVAQIKDKSQNYATYYAESVKGRFTISRADSKNSIYLQMNSLKTEDTAVYYCRYVHYSASYGVDAWGQGTTVTVSS VL: DIVMTQSPLSLPVTPGEPASISCRSSQSPVHSNRNTYIHWYQQKPGQAPRLLIYKVSNRFSGVPDRFSGSGSGTDFTLKISRVEAEDVGVYYCYQGTQWPYTFGQGTKLEIK | 7.75 |
| TR01H040-E22Hh/none-Hi-Kn010G3/L0232-k0 (antibody, V domains shown, one-arm) VH: QVQLVESGGGLVQPGRSLRLSCAASGFTFSNAWMHWVRQAPGKGLEWVAQIKDKSQNYATYYAESVKGRFTISRADSKNSIYLQMNSLKTEDTAVYYCRYVHYSASYGVDAWGQGTTVTVSS VL: DIVMTQSPLSLPVTPGEPASISCRSSESLVHSNRNTYLHWYQQKPGQAPRLLIYKVSNRFSGVPDRFSGSGSGTDFTLKISRVEAEDVGVYYCGQGTQVPYTFGQGTKLEIK | 38.6 |
| TR01H040-E22Hh/none-Hi-Kn010G3/L0233-k0 (antibody, V domains shown, one-arm) VH: QVQLVESGGGLVQPGRSLRLSCAASGFTFSNAWMHWVRQAPGKGLEWVAQIKDKSQNYATYYAESVKGRFTISRADSKNSIYLQMNSLKTEDTAVYYCRYVHYSASYGVDAWGQGTTVTVSS VL: DIVMTQSPLSLPVTPGEPASISCRSSQELVHSNRNTYLHWYQQKPGQAPRLLIYKVSNRFSGVPDRFSGSGSGTDFTLKISRVEAEDVGVYYCGQGTQVPYTFGQGTKLEIK | 40.1 |
| TR01H040-E22Hh/none-Hi-Kn010G3/L0234-k0 (antibody, V domains shown, one-arm) VH: QVQLVESGGGLVQPGRSLRLSCAASGFTFSNAWMHWVRQAPGKGLEWVAQIKDKSQNYATYYAESVKGRFTISRADSKNSIYLQMNSLKTEDTAVYYCRYVHYSASYGVDAWGQGTTVTVSS VL: DIVMTQSPLSLPVTPGEPASISCRSSQEPVHSNRNTYLHWYQQKPGQAPRLLIYKVSNRFRGVPDRFSGSGSGTDFTLKISRVEAEDVGVYYCGQGTQVPYTFGQGTKLEIK | 24 |
